Test results: publication PMC5529588, “OsFH15, a class I formin, interacts with microfilaments and microtubules to regulate grain size via affecting cell expansion in rice” (Scientific Reports, 2017)

Molecular target: actin filaments (rabbit muscle actin, polymerized) (rabbit, UniProt P68135 1-377)
Assay: co-sedimentation; high-speed cosedimentation; 3 uM actin (AFs) with 0.25-8 uM FH1FH2; bound against free protein fitted with a hyperbolic function; three independent experiments; methods in the supplement
Conditions: both partners purified

B1: OsFH15 FH2 (truncated recombinant protein containing the FH2 domain of OsFH15) (domain or fragment)
chain: not shown
notes: OsFH15, class I formin of Oryza sativa, 788 a.a; source: E. coli Transetta (DE3), pET-30a(+), purified (Ni-NTA)
In the case of B1, the Kd is reported as 1.51 ± 0.07 µM.
